Experimental data: patent US20230406915A1 (HJB HANGZHOU, published 2023)
Positions count from the first letter of the chain named.

Assays:
[1] = target: the molecule itself; assay: BLI (forteBIO Octet RED96), antibody captured on ProA biosensor, self-association in acetate buffer pH 5.5; acetate at pH 5.5; self-association
Method: (§1) Self-association binding constant: At high concentrations, undesirable solution properties such as self-association can pose significant challenges to preparation development. In addition to potential manufacturing and delivery challenges, self-associating substances can also affect biological activity and pharmacokinetic properties.
(§2) The self-association binding constants were measured using the forteBIO Octet technique (Octet RED96). The antibodies were diluted to 150 ug/mL with an acetate buffer (pH 5.5), and then added to sample plates (forteBIO, Greiner, PN655209). A ProA biosensor (forteBIO) was used to capture antibodies. Measurements were performed using basic dynamics under the following settings: baseline 60/load 900/baseline 60/association 300/dissociation 300. The association (Kon) and dissociation (Kdis) rate constants of the target antigen were calculated and used to obtain the dissociation constant (KD). All calculations were performed using software provided by forteBIO.

[2] = target: the molecule itself; assay: BLI (forteBIO Octet RED96), antibody captured on ProA biosensor, self-association in acetate buffer pH 5.5
Method: as §1, §2

B1: M-751 (antibody, V domains shown)
VH: QVQLVQSGAEVKKPGSSVKVSCKASGYTFTNYWMNWVRQAPGQGLEWMGMIHPSDSETRLNQKFQGRVTITVDKSTSTAYMELSSLRSEDTAVYYCAREGRLGLRSYAMDYWGQGTLVTVSS
VL: DIQMTQSPSSLSASVGDRVTITCRSSQSLLNSSNQKNYLAWYQQKPGKVPKLLIYFASTRESGVPSRFSGSGSGTDFTLTISSLQPEDVATYFCQQHYITPLTFGGGTKVEIKR
notes: also called candidate antibody
Kd [1]: 438 µM

B2: M-747 (antibody, human IgG1, kappa, V domains shown)
VH: B1 VH with A9S, V11L, S16A, Q65K, G66D
VL: DIVMTQSPDSLAVSLGERATINCKSSQSLLNSSNQKNYLAWYQQKPGQPPKLLVYFASTRESGVPDRFSGSGSGTDFTLTISSLQAEDVAVYFCQQHYITPLTFGGGTKVEIKR
notes: Humanized anti-DKK2 parental antibody; also called parental antibody; parental molecule
Kd [2]: 208 µM

B3: M-755 (antibody, V domains shown)
VH: B1 VH with S16A, F64L, S84R, E89D
VL: B1 VL with V49A, V89F
notes: as for B1
Kd [2]: 456 µM
